Data published in US20230265187A1 (published 2023).
Positions count from the first letter of the chain named.

B1: 43586p2.D05 (scFv, V domains shown)
VH: EVQLLESGGGLVQPGGSLRLSCAASGFTFDDYVMSWVRQAPGKGLEWVSLINWNGDKTYYADSVKGRFTISRDNSKNTLYLQMNSLRAEDTAVYYCARHWIVFQYGLDIWGQGTTVTVSS
VL: QSVLTQPLSASGTPGQRVTISCSGVSSNIEIKYVSWYQQLPGTAPKLLIYNSHQRPSGVPDRFSGSKSGTSASLAISGLQSEDEADYYCTSWDDRLKSWVFGGGTKLTVL
B2: 43586p2.E08 (scFv, V domains shown)
VH: B1 VH with G10D, G66D, I109V
VL: B1 VL
B3: 43586p1.2.C5 (scFv, V domains shown)
VH: EVQLLESGGGLVQPGGSLRLSCAASGFTVSDHYMSWVRQAPGKGLEWVSTTSSTSWKNYTYYADSVKGRFSISRDNSENTLYLQMNGLRAEDTAVYYCAKGSYGMDVWGQGTTVTVSS
VL: QSVLTQPPSASGTPGQRVTISCSGSNFNIGTKYLYWYQQLPGTAPKLLIYLDSQRPSGVPDRFSTSKPGTSASLAISGLQSEDEADYYCALWDDHLHGWVFGGGTKLTVL
B4: 43586p2.D01 (scFv, V domains shown)
VH: B3 VH with D31S, H32N, Y33W, T54S, K57N, S71T, E78K, G87S
VL: B3 VL with F27S, T31A, D52N, S53D, T65G, P68S, L91F, H97K
B5: 43586p1.2.E6 (scFv, V domains shown)
VH: B3 VH
VL: B3 VL with P68S
B6: 43586p2.C09 (scFv, V domains shown)
VH: EVQLLESGGGLVQPGGSLRLSCTASGFTFTSYAMSWVSQAPGKGLEWVAGISYDGSIKYYADSVKGRLTISRDNSKNTLYLQMNSLRAEDTAIYYCAKHLTGGTTDYYYYAMDVWGQGTTVTVSS
VL: QSVLTQPPSASGTPGQRVTISCSGSTSNIGTNRYVHWYQQFPGTAPKLLIYGTDRRPSGVSDRFSGSKSGTSASLAISGLQSEDEADYYCAAWDDSLSAWVFGGGTKLTVL
B7: 43586p1.1.A7 (scFv, V domains shown)
VH: B6 VH with T23A, S38R, K58Q, Y80N, E89G, I93V, A111G
VL: B6 VL with L4M, T26S, Q39K, F41V, T53N, D54H, R55Q, S61P, D95G, A99G
B8: 43586p1.2.B8 (scFv, V domains shown)
VH: EVQLLESGGGLVQPGGSLRLSCAASGFTFTSYLMSWVRQAPGKGLEWVSTITWDGDRTYYADSVKGRFTISRDNSKNTLYLQMNSLRVGDTAVYYCAKHWTVFQYGMDVWGQGTTVTVSS
VL: QSVLTQPASASGTPGQRVTITCSGTISNIETKYVSWYQQLPGTAPKLLIYGNHQRPSGVPDRFSGSKSGTSASLAISGLQSEDEADYYCASWENDLKSWVFGGGTKLTVL
B9: 43586p1.2.C9 (scFv, V domains shown)
VH: B1 VH with V93I, R98K, L107M, I109V
VL: B1 VL with L8P, V25S, S26I, I31T, H53D, T90V, D94A, R95S
B10: 43586p1.2.C12 (scFv, V domains shown)
VH: ESGGGLVQPGGSLRLSCAASGFTFSDYLMTWVRQAPGKGLEWVSTITWDGDRTYYADSVKGRFTISRDNSKNTLYLQMNSLRAEDTAVYYCAKHWTVFQYGMDVWGQGTTVTVSS
VL: B8 VL with A8P, T21S, T31I, A90S
B11: 43645p1.D7 (scFv, V domains shown)
VH: EVQLLESGGGLVQPGGSLRLSCAASGFTFSRNSMSWVRQAPGKGLEWVSTINSGSSYTYYADSVKGRFTISRDNSKNTLYLQMNSLRAEDTAVYYCAKDNCNGYHCYGMDVWGLGTTVTVSS
VL: QSVLTQPPSASGTPGQRVTISCSGSTSNVGDHYVHWYQQLPGTAPKLLIYKDDQRPSGVPDRFSGSKSGTSASLAISGLQSEDEADYYCSTWDNTLNGWVFGGGTKLTVL
B12: 43586p2.D06 (scFv, V domains shown)
VH: EVQLLESGGGLVQPGGSLRLSCAASGFTFSSYWMNWVRQAPGKGLEWVSGIYSGGTTYYADSVKGRFTISRDNSKNTLYLQMNSLRAEDTAVYYCTRENWKENNAMDVWGQGTTVTVSS
VL: QSVLTQPPSASGTPGQRVTISCSGVTSNIASYHVYWYQQLPGTAPKLLIYLNSQRPSGVPDRFSASKSGTSASLAISGLQSEDEADYYCATWDGSLNGWVFGGGTKLTVL
B13: 43586p2.G02 (scFv, V domains shown)
VH: B12 VH
VL: B12 VL with L96Q

What follows are binders tested against T1, human TIGIT on Jurkat cells (TIGIT/NFAT reporter Jurkat cells, BPS Bioscience #60538); Promega TIGIT Effector … (human, UniProt Q495A1 22-244) (assay: cell-based or functional assay).
T1 sequence (looked up): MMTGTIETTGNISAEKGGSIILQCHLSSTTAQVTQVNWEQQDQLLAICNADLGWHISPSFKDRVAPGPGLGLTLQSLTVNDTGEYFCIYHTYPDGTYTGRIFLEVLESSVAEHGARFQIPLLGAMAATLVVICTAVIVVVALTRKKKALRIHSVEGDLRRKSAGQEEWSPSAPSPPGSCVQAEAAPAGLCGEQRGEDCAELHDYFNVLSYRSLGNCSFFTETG

Going from B1 to B2, the “max. signal (% of 22G2)” value falls from 118 % of 22G2 to 117 % of 22G2.

Going from B3 to B4, the “max. signal (% of 22G2)” value rises from 91 % of 22G2 to 103 % of 22G2.

Compared with B5, B6 is higher in “max. signal (% of 22G2)” value: 97 % of 22G2 for the first, 115 % of 22G2 for the second.

Compared with B7, B8 is higher in “max. signal (% of 22G2)” value: 89 % of 22G2 for the first, 130 % of 22G2 for the second.

First: B9
Second: B10
The “max. signal (% of 22G2)” value of the first is higher: 126 % of 22G2 for the first, 118 % of 22G2 for the second.

In the case of B11, the “max. signal (% of 22G2)” value is reported as 57 % of 22G2.

What follows are binders tested against T2, his-tagged murine TIGIT (Acro Biosystems #TIT-M52E6) (murine, UniProt P86176 29-148, limits assumed) (assay: SPR (Carterra LSA), scFv-Fc captured, His-TIGIT analyte).
T2 construct: Bought protein; also called mouse his-tagged TIGIT; not shown: his tag
T2 sequence (looked up): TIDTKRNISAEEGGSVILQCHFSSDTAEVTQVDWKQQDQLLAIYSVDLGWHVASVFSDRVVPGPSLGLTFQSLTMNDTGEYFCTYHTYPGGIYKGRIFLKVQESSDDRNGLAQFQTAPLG
Experimental: (§1) Binding affinities of anti-TIGIT antibodies to human, cyno, and murine TIGIT were measured by Surface Plasmon Resonance (SPR) on a Carterra LSA instrument. Goat anti-human Fc antibody was amine coupled to a HC30M chip. ScFv-Fc supernatants were diluted 30-fold with HBSTE and were captured by the anti-human Fc coupled HC30M chip. A 1:2 dilution series of his-tagged human TIGIT, starting at 400 nM, was injected onto the chip for binding. A dilution series was also carried out for cyno TIGIT and murine TIGIT. Data were analyzed using the Carterra™ Kinetics software.

B1 and B2 are within 1.5-fold of each other in Kd: 5.46 nM for the first, 5.79 nM for the second.

Compared with B3, B4 is 6.5-fold lower in Kd: 3.2 nM for the first, 0.496 nM for the second.

Compared with B5, B8 is 160-fold higher in Kd: 3.07 nM for the first, 501 nM for the second.

Compared with B9, B10 is 19-fold higher in Kd: 3.66 nM for the first, 68.2 nM for the second. The first binds more tightly here.

Going from B12 to B13, the Kd falls from 3.09 nM to 1.57 nM (2-fold). The second binds more tightly here.

Each binder was assayed against T3, his-tagged human TIGIT (Acro Biosystems #TIT-H52H3) (human, UniProt Q495A1 22-141) in the same assay as above.
T3 construct: Bought protein; also called His-tagged-TIGIT (human); not shown: his tag
T3 sequence (looked up): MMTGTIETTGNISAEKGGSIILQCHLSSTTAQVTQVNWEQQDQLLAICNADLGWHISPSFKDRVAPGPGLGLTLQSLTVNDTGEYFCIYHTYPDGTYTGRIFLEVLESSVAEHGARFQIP
Experimental: as §1

B1 and B2 are within 1.5-fold of each other in Kd: 0.214 nM for the first, 0.252 nM for the second.

B3 and B4 are the same in Kd: 1.04 nM for the first, 1.04 nM for the second.

First: B5
Second: B6
The Kd of the first is 4.4-fold higher: 1.56 nM for the first, 0.354 nM for the second. The second binds more tightly here.

Compared with B7, B8 is 5.8-fold lower in Kd: 0.721 nM for the first, 0.125 nM for the second. The second binds more tightly here.

B9 and B10 are within 1.5-fold of each other in Kd: 0.202 nM for the first, 0.192 nM for the second.

Compared with B11, B12 is 20-fold lower in Kd: 6.76 nM for the first, 0.344 nM for the second.

In the case of B13, the Kd is reported as 0.639 nM.

These binders were tested against T4, His-tagged cynomolgus monkey TIGIT (Acro Biosystems #TIT-05223) (cynomolgus monkey, UniProt A0A7N9I9V4 89-209) in the same assay as above.
T4 construct: Bought protein; also called cyno TIGIT; cynomolgus TIGIT; not shown: His tag
Experimental: as §1

T4 sequence (A0A7N9I9V4 entry or part of it): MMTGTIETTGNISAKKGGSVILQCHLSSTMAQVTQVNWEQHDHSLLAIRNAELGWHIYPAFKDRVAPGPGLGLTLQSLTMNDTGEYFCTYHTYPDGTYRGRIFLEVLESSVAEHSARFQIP

B1 and B2 are within 1.5-fold of each other in Kd: 1.55 nM for the first, 1.83 nM for the second.

First: B3
Second: B4
The Kd of the first is 14-fold higher: 411 nM for the first, 29.1 nM for the second. The second binds more tightly here.

Compared with B5, B6 is 220-fold lower in Kd: 564 nM for the first, 2.62 nM for the second. The second binds more tightly here.

B7 and B8 are within 1.5-fold of each other in Kd: 20 nM for the first, 25.3 nM for the second.

B9 and B10 are within 1.5-fold of each other in Kd: 8.69 nM for the first, 9.18 nM for the second.

Going from B11 to B12, the Kd falls from 6.27 nM to 1.06 nM (5.9-fold).

B13 showed a Kd of 2.37 nM.

The binders below were run against T2, his-tagged murine TIGIT (Acro …) (assay: ELISA, coated His-TIGIT, 1 ug/ml).

Going from B1 to B2, the “Elisa OD450” value rises from 1.67 OD450 to 2.03 OD450.

First: B3
Second: B4
The “Elisa OD450” value of the first is higher: 2.03 OD450 for the first, 1.66 OD450 for the second.

Going from B5 to B6, the “Elisa OD450” value falls from 2.01 OD450 to 0.046 OD450.

Compared with B7, B8 is higher in “Elisa OD450” value: 0.045 OD450 for the first, 1.66 OD450 for the second.

First: B9
Second: B10
The “Elisa OD450” value of the first is lower: 0.046 OD450 for the first, 2.03 OD450 for the second.

Compared with B11, B12 is higher in “Elisa OD450” value: 0.32 OD450 for the first, 1.36 OD450 for the second.

With B13 the “Elisa OD450” value was 1.7 OD450.

Each binder was assayed against T3, his-tagged human TIGIT (Acro Biosystems …) (assay: ELISA, coated His-TIGIT, 1 ug/ml).

Compared with B1, B2 is lower in “Elisa OD450” value: 1.92 OD450 for the first, 1.46 OD450 for the second.

Compared with B3, B4 is lower in “Elisa OD450” value: 2.03 OD450 for the first, 1.95 OD450 for the second.

Going from B5 to B6, the “Elisa OD450” value rises from 1.82 OD450 to 2.07 OD450.

Going from B7 to B8, the “Elisa OD450” value rises from 2.01 OD450 to 2.1 OD450.

Compared with B9, B10 is higher in “Elisa OD450” value: 2.17 OD450 for the first, 2.21 OD450 for the second.

First: B11
Second: B12
The “Elisa OD450” value of the first is higher: 2.06 OD450 for the first, 1.77 OD450 for the second.

B13 was tested, and the “Elisa OD450” value was 1.88 OD450.

What follows are binders tested against T4, His-tagged cynomolgus monkey TIGIT … (assay: ELISA, coated His-TIGIT, 1 ug/ml).

Going from B1 to B2, the “Elisa OD450” value rises from 1.73 OD450 to 1.87 OD450.

Going from B3 to B4, the “Elisa OD450” value rises from 0.685 OD450 to 1.61 OD450.

Compared with B5, B6 is higher in “Elisa OD450” value: 0.776 OD450 for the first, 1.79 OD450 for the second.

Going from B7 to B8, the “Elisa OD450” value rises from 1.34 OD450 to 1.46 OD450.

Going from B9 to B10, the “Elisa OD450” value rises from 1.61 OD450 to 1.68 OD450.

First: B11
Second: B12
The “Elisa OD450” value of the first is higher: 1.88 OD450 for the first, 1.66 OD450 for the second.

In the case of B13, the “Elisa OD450” value is reported as 1.5 OD450.

These binders were tested against T1, human TIGIT on Jurkat cells (TIGIT/NFAT …) (assay: flow cytometry, TIGIT/NFAT Jurkat cells, 10 ug/ml).

Going from B1 to B2, the MFI rises from 9960 MFI to 11300 MFI.

Compared with B3, B4 is lower in MFI: 10700 MFI for the first, 9990 MFI for the second.

Going from B5 to B6, the MFI falls from 10500 MFI to 8830 MFI.

Going from B7 to B8, the MFI rises from 9000 MFI to 9470 MFI.

Compared with B9, B10 is higher in MFI: 8330 MFI for the first, 11900 MFI for the second.

First: B11
Second: B12
The MFI of the first is lower: 9660 MFI for the first, 15400 MFI for the second.

Work on B13 yielded an MFI of 7590 MFI.
